Reference: publication PMC8368726, “Granzyme A Produced by γ9δ2 T Cells Activates ER Stress Responses and ATP Production, and Protects Against Intracellular Mycobacterial Replication Independent of Enzymatic Activity” (Frontiers in Immunology, 2021)

Target: the molecule itself
Test: non-reducing SDS gel electrophoresis (silver stain and western blot); purified GzmA run under non-reducing conditions; homodimer at ~50 kDa and polymers of it

B1: Native human Granzyme A (enzyme, UniProt P12544 29-262, looked up)
chain: IIGGNEVTPHSRPYMVLLSLDRKTICAGALIAKDWVLTAAHCNLNKRSQVILGAHSITREEPTKQIMLVKKEFPYPCYDPATREGDLKLLQLMEKAKINKYVTILHLPKKGDDVKPGTMCQVAGWGRTHNSASWSDTLREVNITIIDRKVCNDRNHYNFNPVIGMNMVCAGSLRGGRDSCNGDSGSPLLCEGVFRGVTSFGLENKCGDPRGPGVYILLSKKHLNWIIMTIKGAV
notes: Granzyme A (GzmA), native human protein, commercially obtained; Some monomer at ~25 kDa is seen beside the homodimer; also called NhGzmA; native GzmA; source: bought: TheraTest (Lombard, IL)
Question: Does B1 bind?
Answer: binds
